A short description of this data set: Kinetic assessment of adenosine deaminase activity (ammonia assay, Michaelis-Menten). The note with it: [E] = 8.5 nM; for kcat: kcat=Vmax/0.0085/60. It is filed as biochemical. Here is the method:
Adenosine deaminase activity was determined by the measurement of ammonia released from adenosine when broken down to inosine. Ammonia was measured using a commercially available Ammonia Assay kit (Cat. No. AA0100, Sigma-Aldrich, St. Louis, Mo.). The kit contains dry reagents containing α-ketoglutaric acid and NADPH, which were reconstituted with 5 mL water prior to use in the assay. Ammonia reacts with α-ketogluaric acid (KGA) and reduced nicotinamide adenine dinucleotide phosphate (NADPH) in the presence of L-glutamate dehydrogenase (GDH).
Kinetics parameters of rHuADA2 WT and variants were compared using this assay at different adenosine concentrations at pH 7.6 and 6.5. Adenosine concentrations ranging from 20 μM to 20 mM were used. Sub-molar concentration of adenosine stock was prepared in 1N NaOH.
For the enzymatic assays at pH 7.6, adenosine was serially diluted with 100 mM sodium acetate (NaOAc), pH 4.9. A 2× reaction mixture was prepared, containing reconstituted ammonia assay reagent (containing about 4 mM α-ketoglutarate and about 300 μM NADPH), WT rHuADA2 or variants at 1 μg/mL (17 nM) and glutamate dehydrogenase (GDH, 1:50 dilution). 85 μL of adenosine was added to 85 μL 2× mixture in duplicate in a UV-transparent half-area plate. The change in absorbance (ΔA) at 340 nm over time at room temperature was monitored.
For the enzymatic assay at pH 6.5, adenosine was serially diluted with 200 mM piperazine-N,N′-bis(2-ethanesulfonic acid) (PIPES), pH 6.5. A 2× reaction mixture in 200 mM PIPES, pH 6.5 was prepared, containing 4 mM α-ketoglutarate, 300 μM NADPH, 1 μg/mL (17 nM) rHuADA2 or variants and 50 U/mL GDH (Cat No. G2626, Sigma-Aldrich). The enzymatic reaction was initiated by adding equal volume of adenosine to the 2× mixture in a UV-transparent half-area plate as described above, and the change in absorbance (AA) at 340 nm over time at room temperature was monitored.
Adenosine deaminase activity in mU/mL (μM/min equivalent) was calculated using the following formula: 1 mU/mL=−(−ΔA/min×Tv)/(Sv×ϵ×1) • where Tv=total volume (170 μL), Sv=sample volume (85 μL), ϵ=6.22×10^−3 μM^−1 cm^−1, 1=1 cm.
The activity data were fitted with non-linear regression of Michaelis-Menten equation using Graphpad Prism software to obtain Km and Vmax. Other kinetics parameters such as kcat and kcat/Km were also determined.

B1: R222Q/K374E: ADA2 combination variant SEQ ID NO:263 (protein)
chain: IDETRAHLLLKEKMMRLGGRLVLNTKEELANERLMTLKIAEMKEAMRTLIFPPSMHFFQAKHLIERSQVFNILRMMPKGAALHLHDIGIVTMDWLVRNVTYRPHCHICFTPRGIMQFRFAHPTPRPSEKCSKWILLEDYRKRVQNVTEFDDSLLRNFTLVTQHPEVIYTNQNVVWSKFETIFFTISGLIHYAPVFRDYVFRSMQEFYEDNVLYMEIRAQLLPVYELSGEHHDEEWSVKTYQEVAQKFVETHPEFIGIKIIYSDHRSKDVAVIAESIRMAMGLRIKFPTVVAGFDLVGHEDTGHSLHDYKEALMIPAKDGVKLPYFFHAGETDWQGTSIDRNILDALMLNTTRIGHGFALSKHPAVRTYSWEKDIPIEVCPISNQVLKLVSDLRNHPVATLMATGHPMVISSDDPAMFGAKGLSYDFYEVFMGIGGMKADLRTLKQLAMNSIKYSTLLESEKNTFMEIWKKRWDKFIADVATK
modifications: human ADA2 R219Q/K371E, mature numbering
Regarding B1, for the setting “pH 6.5”, the Km came out at 990 µM, the maximal velocity (Vmax) is 58.56 µM/min and the catalytic constant (kcat) worked out at 114.82 s⁻¹. Also, for the setting “pH 7.6”, the Km was 1580 µM, the Vmax amounted to 87.27 µM/min and the catalytic constant (kcat) was 171.12 s⁻¹.

B2: R222Q/K374D/R23E: ADA2 combination variant SEQ ID NO:267 (protein)
chain: IDETRAHLLLKEKMMRLGGELVLNTKEELANERLMTLKIAEMKEAMRTLIFPPSMHFFQAKHLIERSQVFNILRMMPKGAALHLHDIGIVTMDWLVRNVTYRPHCHICFTPRGIMQFRFAHPTPRPSEKCSKWILLEDYRKRVQNVTEFDDSLLRNFTLVTQHPEVIYTNQNVVWSKFETIFFTISGLIHYAPVFRDYVFRSMQEFYEDNVLYMEIRAQLLPVYELSGEHHDEEWSVKTYQEVAQKFVETHPEFIGIKIIYSDHRSKDVAVIAESIRMAMGLRIKFPTVVAGFDLVGHEDTGHSLHDYKEALMIPAKDGVKLPYFFHAGETDWQGTSIDRNILDALMLNTTRIGHGFALSKHPAVRTYSWDKDIPIEVCPISNQVLKLVSDLRNHPVATLMATGHPMVISSDDPAMFGAKGLSYDFYEVFMGIGGMKADLRTLKQLAMNSIKYSTLLESEKNTFMEIWKKRWDKFIADVATK
modifications: human ADA2 R219Q/K371D/R20E, mature numbering
As for B2, under “pH 6.5”, the Michaelis constant (Km) turned out to be 670 µM, the maximum rate (Vmax) was found to be 60.68 µM/min and the catalytic constant (kcat) was 118.98 s⁻¹. For the same molecule, under “pH 7.6”, the Michaelis constant (Km) was determined as 1340 µM, the maximal velocity (Vmax) was determined as 88.43 µM/min and the kcat came to 173.39 s⁻¹.

B3: R222Q/R23E: ADA2 combination variant SEQ ID NO:265 (protein)
chain: IDETRAHLLLKEKMMRLGGELVLNTKEELANERLMTLKIAEMKEAMRTLIFPPSMHFFQAKHLIERSQVFNILRMMPKGAALHLHDIGIVTMDWLVRNVTYRPHCHICFTPRGIMQFRFAHPTPRPSEKCSKWILLEDYRKRVQNVTEFDDSLLRNFTLVTQHPEVIYTNQNVVWSKFETIFFTISGLIHYAPVFRDYVFRSMQEFYEDNVLYMEIRAQLLPVYELSGEHHDEEWSVKTYQEVAQKFVETHPEFIGIKIIYSDHRSKDVAVIAESIRMAMGLRIKFPTVVAGFDLVGHEDTGHSLHDYKEALMIPAKDGVKLPYFFHAGETDWQGTSIDRNILDALMLNTTRIGHGFALSKHPAVRTYSWKKDIPIEVCPISNQVLKLVSDLRNHPVATLMATGHPMVISSDDPAMFGAKGLSYDFYEVFMGIGGMKADLRTLKQLAMNSIKYSTLLESEKNTFMEIWKKRWDKFIADVATK
modifications: human ADA2 R219Q/R20E, mature numbering
Regarding B3, for the setting “pH 6.5”, the Michaelis-Menten constant (Km) turned out to be 840 µM, the maximum rate (Vmax) is 60.47 µM/min and the turnover number (kcat) came out at 118.57 s⁻¹. Moreover, where the note is “pH 7.6”, the Km turned out to be 1460 µM, the maximal velocity (Vmax) turned out to be 84.71 µM/min and the turnover number (kcat) stood at 166.10 s⁻¹.

B4: R222Q/K374E/R23E: ADA2 combination variant SEQ ID NO:266 (protein)
chain: IDETRAHLLLKEKMMRLGGELVLNTKEELANERLMTLKIAEMKEAMRTLIFPPSMHFFQAKHLIERSQVFNILRMMPKGAALHLHDIGIVTMDWLVRNVTYRPHCHICFTPRGIMQFRFAHPTPRPSEKCSKWILLEDYRKRVQNVTEFDDSLLRNFTLVTQHPEVIYTNQNVVWSKFETIFFTISGLIHYAPVFRDYVFRSMQEFYEDNVLYMEIRAQLLPVYELSGEHHDEEWSVKTYQEVAQKFVETHPEFIGIKIIYSDHRSKDVAVIAESIRMAMGLRIKFPTVVAGFDLVGHEDTGHSLHDYKEALMIPAKDGVKLPYFFHAGETDWQGTSIDRNILDALMLNTTRIGHGFALSKHPAVRTYSWEKDIPIEVCPISNQVLKLVSDLRNHPVATLMATGHPMVISSDDPAMFGAKGLSYDFYEVFMGIGGMKADLRTLKQLAMNSIKYSTLLESEKNTFMEIWKKRWDKFIADVATK
modifications: human ADA2 R219Q/K371E/R20E, mature numbering
Regarding B4, under “pH 6.5”, the Km was 860 µM, the maximal velocity (Vmax) was determined as 54.48 µM/min and the kcat was determined as 106.82 s⁻¹. Also, where the note is “pH 7.6”, the Km was found to be 1920 µM, the Vmax was determined as 78.42 µM/min and the kcat stood at 153.76 s⁻¹.

B5: R222Q/K374D: ADA2 combination variant SEQ ID NO:264 (protein)
chain: IDETRAHLLLKEKMMRLGGRLVLNTKEELANERLMTLKIAEMKEAMRTLIFPPSMHFFQAKHLIERSQVFNILRMMPKGAALHLHDIGIVTMDWLVRNVTYRPHCHICFTPRGIMQFRFAHPTPRPSEKCSKWILLEDYRKRVQNVTEFDDSLLRNFTLVTQHPEVIYTNQNVVWSKFETIFFTISGLIHYAPVFRDYVFRSMQEFYEDNVLYMEIRAQLLPVYELSGEHHDEEWSVKTYQEVAQKFVETHPEFIGIKIIYSDHRSKDVAVIAESIRMAMGLRIKFPTVVAGFDLVGHEDTGHSLHDYKEALMIPAKDGVKLPYFFHAGETDWQGTSIDRNILDALMLNTTRIGHGFALSKHPAVRTYSWDKDIPIEVCPISNQVLKLVSDLRNHPVATLMATGHPMVISSDDPAMFGAKGLSYDFYEVFMGIGGMKADLRTLKQLAMNSIKYSTLLESEKNTFMEIWKKRWDKFIADVATK
modifications: human ADA2 R219Q/K371D, mature numbering
With B5, for the setting “pH 6.5”, the Km stood at 790 µM, the Vmax turned out to be 60.87 µM/min and the turnover number (kcat) is 119.35 s⁻¹. Besides, under “pH 7.6”, the Km came out at 1710 µM, the Vmax stood at 77.01 µM/min and the catalytic constant (kcat) came to 151.00 s⁻¹.

B6: R222Q/S265N/K374E: ADA2 combination variant SEQ ID NO:268 (protein)
chain: IDETRAHLLLKEKMMRLGGRLVLNTKEELANERLMTLKIAEMKEAMRTLIFPPSMHFFQAKHLIERSQVFNILRMMPKGAALHLHDIGIVTMDWLVRNVTYRPHCHICFTPRGIMQFRFAHPTPRPSEKCSKWILLEDYRKRVQNVTEFDDSLLRNFTLVTQHPEVIYTNQNVVWSKFETIFFTISGLIHYAPVFRDYVFRSMQEFYEDNVLYMEIRAQLLPVYELSGEHHDEEWSVKTYQEVAQKFVETHPEFIGIKIIYNDHRSKDVAVIAESIRMAMGLRIKFPTVVAGFDLVGHEDTGHSLHDYKEALMIPAKDGVKLPYFFHAGETDWQGTSIDRNILDALMLNTTRIGHGFALSKHPAVRTYSWEKDIPIEVCPISNQVLKLVSDLRNHPVATLMATGHPMVISSDDPAMFGAKGLSYDFYEVFMGIGGMKADLRTLKQLAMNSIKYSTLLESEKNTFMEIWKKRWDKFIADVATK
modifications: human ADA2 R219Q/S262N/K371E, mature numbering
With B6, for the setting “pH 6.5”, the Michaelis-Menten constant (Km) came to 800 µM, the maximal velocity (Vmax) amounted to 45.53 µM/min and the kcat came to 89.27 s⁻¹. Also, where the note is “pH 7.6”, the Km was 1350 µM, the Vmax amounted to 65.43 µM/min and the turnover number (kcat) was determined as 128.29 s⁻¹.
